Laboratory results: patent US20240391954A1, “MC4R AGONIST PEPTIDES” (The Regents of the University of Michigan, priority 2021, published 2024)
Read-outs that look alike come from different tables or passages of the source. Positions of bridges follow the written chain, without caps; N, C: chain ends. Non-standard residues stand in square brackets, D forms with d. Phe(4-Br) = N[C@@H](Cc1ccc(Br)cc1)C(=O)O; dPhe(4-Br) = N[C@H](Cc1ccc(Br)cc1)C(=O)O; dPhe(4-I) = N[C@H](Cc1ccc(I)cc1)C(=O)O; d(αMeF) = C[C@@](N)(Cc1ccccc1)C(=O)O; d(hPhe) = N[C@H](CCc1ccccc1)C(=O)O; NMeR = CN[C@@H](CCCNC(=N)N)C(=O)O; Cit = NC(=O)NCCC[C@H](N)C(=O)O; Nle = CCCC[C@H](N)C(=O)O; Aib = CC(C)(N)C(=O)O

Tests used:
Experiment in all cases: cell-based or functional assay
[1] = target: T1, human MC3R (human, UniProt P41968 1-323)
[2] = target: T2, human MC4R receptor (human, UniProt P32245 1-332)
[3] = target: T2, human MC4R receptor; remark: listed apart in the source
[4] = target: T1, human MC3R; remark: listed apart in the source
[5] = target: T2, human MC4R receptor; remark: listed apart in the source
[6] = target: T2, human MC4R receptor; remark: listed apart in the source

T2 sequence (P32245 whole entry): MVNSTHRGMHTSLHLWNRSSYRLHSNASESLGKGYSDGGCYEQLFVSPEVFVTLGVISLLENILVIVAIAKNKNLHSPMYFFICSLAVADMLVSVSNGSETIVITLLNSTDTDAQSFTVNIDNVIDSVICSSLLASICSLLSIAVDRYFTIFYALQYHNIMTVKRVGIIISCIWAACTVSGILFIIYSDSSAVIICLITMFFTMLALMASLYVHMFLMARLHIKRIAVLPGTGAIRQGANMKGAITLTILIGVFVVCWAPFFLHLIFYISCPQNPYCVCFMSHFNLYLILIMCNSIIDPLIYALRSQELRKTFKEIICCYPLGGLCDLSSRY
T1 sequence (P41968 whole entry): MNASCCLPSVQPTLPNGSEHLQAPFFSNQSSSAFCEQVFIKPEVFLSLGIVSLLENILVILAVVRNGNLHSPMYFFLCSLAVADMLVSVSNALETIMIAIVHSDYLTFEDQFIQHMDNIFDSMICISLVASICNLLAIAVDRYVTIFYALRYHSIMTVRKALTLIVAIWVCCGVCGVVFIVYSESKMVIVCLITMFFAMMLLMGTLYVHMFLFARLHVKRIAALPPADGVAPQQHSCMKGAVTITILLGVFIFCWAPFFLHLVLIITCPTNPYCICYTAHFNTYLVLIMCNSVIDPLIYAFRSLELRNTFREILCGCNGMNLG

B1: CTX-1217 (peptide)
peptide: Ac-RC[dA]R[dPhe(4-Br)]R[dW]CKP-NH2
modifications: disulfide 2-8
SMILES: CC(=O)N[C@@H](CCCNC(=N)N)C(=O)N[C@H]1CSSC[C@@H](C(=O)N[C@@H](CCCCN)C(=O)N2CCC[C@H]2C(N)=O)NC(=O)[C@@H](Cc2c[nH]c3ccccc23)NC(=O)[C@H](CCCNC(=N)N)NC(=O)[C@@H](Cc2ccc(Br)cc2)NC(=O)[C@H](CCCNC(=N)N)NC(=O)[C@@H](C)NC1=O
[1]
  % max activation: 13%
  cAMP EC50: 4 nM
[2]
  % max activation: 69%
  cAMP EC50: 1.5 nM
[3]
  MC4R selectivity vs MC1R: 1.12
  MC4R selectivity vs MC3R: 2.73

B2: CTX-1230 (peptide)
peptide: Ac-R[Nle]CR[dPhe(4-Br)]RWC-NH2
modifications: disulfide 3-8
SMILES: CCCC[C@H](NC(=O)[C@H](CCCNC(=N)N)NC(C)=O)C(=O)N[C@H]1CSSC[C@@H](C(N)=O)NC(=O)[C@H](Cc2c[nH]c3ccccc23)NC(=O)[C@H](CCCNC(=N)N)NC(=O)[C@@H](Cc2ccc(Br)cc2)NC(=O)[C@H](CCCNC(=N)N)NC1=O
[1]
  cAMP EC50: 3.9 nM
[2]
  cAMP EC50: 1.4 nM

B3: CTX-1232 (peptide)
peptide: Ac-R[Nle]CR[dPhe(4-Br)]R[dW]C-NH2
modifications: disulfide 3-8
SMILES: CCCC[C@H](NC(=O)[C@H](CCCNC(=N)N)NC(C)=O)C(=O)N[C@H]1CSSC[C@@H](C(N)=O)NC(=O)[C@@H](Cc2c[nH]c3ccccc23)NC(=O)[C@H](CCCNC(=N)N)NC(=O)[C@@H](Cc2ccc(Br)cc2)NC(=O)[C@H](CCCNC(=N)N)NC1=O
[1]
  cAMP EC50: 6 nM
[2]
  cAMP EC50: 2.4 nM

B4: CTX-1218 (peptide)
peptide: Ac-RC[dA]R[dPhe(4-Br)]R[dW]CK-NH2
modifications: disulfide 2-8
SMILES: CC(=O)N[C@@H](CCCNC(=N)N)C(=O)N[C@H]1CSSC[C@@H](C(=O)N[C@@H](CCCCN)C(N)=O)NC(=O)[C@@H](Cc2c[nH]c3ccccc23)NC(=O)[C@H](CCCNC(=N)N)NC(=O)[C@@H](Cc2ccc(Br)cc2)NC(=O)[C@H](CCCNC(=N)N)NC(=O)[C@@H](C)NC1=O
[1]
  % max activation: 16%
[2]
  % max activation: 77%
[3]
  MC4R selectivity vs MC1R: 1
  MC4R selectivity vs MC3R: 1.85

B5: CTX-1613 (peptide)
peptide: Ac-R[Nle]CR[dPhe(4-Br)]R[dW]C-NH2
modifications: disulfide 3-8
SMILES: CCCC[C@H](NC(=O)[C@H](CCCNC(=N)N)NC(C)=O)C(=O)N[C@H]1CSSC[C@@H](C(N)=O)NC(=O)[C@@H](Cc2c[nH]c3ccccc23)NC(=O)[C@H](CCCNC(=N)N)NC(=O)[C@@H](Cc2ccc(Br)cc2)NC(=O)[C@H](CCCNC(=N)N)NC1=O
[1]
  cAMP EC50: 4 nM
[2]
  cAMP EC50: 1.9 nM

## Ac-RC[dA]R[Phe(4-Br)]RWC-NH2 (disulfide 2-8) [CTX-1212]
[1]
  % max activation: 0.1%
  cAMP EC50: 28 nM
[2]
  % max activation: 55%
  cAMP EC50: 393 nM
[3]
  MC4R selectivity vs MC1R: 0.07
  MC4R selectivity vs MC3R: 0.07

## Ac-RC[dA]R[d(hPhe)]R[dW]C-NH2 (disulfide 2-8) [CTX-1277]
[1]
  cAMP EC50: 45 nM
[2]
  cAMP EC50: 429 nM

B6: CTX-1229 (peptide)
peptide: Ac-R[Nle]CH[dPhe(4-Br)]RWC-NH2
modifications: disulfide 3-8
SMILES: CCCC[C@H](NC(=O)[C@H](CCCNC(=N)N)NC(C)=O)C(=O)N[C@H]1CSSC[C@@H](C(N)=O)NC(=O)[C@H](Cc2c[nH]c3ccccc23)NC(=O)[C@H](CCCNC(=N)N)NC(=O)[C@@H](Cc2ccc(Br)cc2)NC(=O)[C@H](Cc2c[nH]cn2)NC1=O
[1]
  % max activation: 16%
  cAMP EC50: 3.5 nM
[2]
  % max activation: 31%
  cAMP EC50: 18 nM

## Ac-RC[dA]R[dF][Cit][dW]C-NH2 (disulfide 2-8) [CTX-1281]
[4]
  % max activation: 44%
  cAMP EC50: 28 nM
[5]
  % max activation: 92%
  cAMP EC50: 97 nM
[6]
  MC4R selectivity vs MC1R: 0.44
  MC4R selectivity vs MC3R: 0.29

## Ac-RC[dA][Cit][dF]R[dW]C-NH2 (disulfide 2-8) [CTX-1286]
[4]
  % max activation: 24%
  cAMP EC50: 568 nM
[5]
  % max activation: 91%
  cAMP EC50: 262 nM
[6]
  MC4R selectivity vs MC1R: 3.4
  MC4R selectivity vs MC3R: 2.16

B7: CTX-1219 (peptide)
peptide: Ac-RC[dA]R[dPhe(4-Br)]R[dW]CRFG-OH
modifications: disulfide 2-8
SMILES: CC(=O)N[C@@H](CCCNC(=N)N)C(=O)N[C@H]1CSSC[C@@H](C(=O)N[C@@H](CCCNC(=N)N)C(=O)N[C@@H](Cc2ccccc2)C(=O)NCC(=O)O)NC(=O)[C@@H](Cc2c[nH]c3ccccc23)NC(=O)[C@H](CCCNC(=N)N)NC(=O)[C@@H](Cc2ccc(Br)cc2)NC(=O)[C@H](CCCNC(=N)N)NC(=O)[C@@H](C)NC1=O
[1]
  % max activation: 20%
  cAMP EC50: 4.5 nM
[2]
  % max activation: 76%
  cAMP EC50: 2.3 nM
[3]
  MC4R selectivity vs MC1R: 1
  MC4R selectivity vs MC3R: 1.99

B8: CTX-1284 (peptide)
peptide: Ac-RC[dA]R[dF][NMeR][dW]C-NH2
modifications: disulfide 2-8
SMILES: CC(=O)N[C@@H](CCCNC(=N)N)C(=O)N[C@H]1CSSC[C@@H](C(N)=O)NC(=O)[C@@H](Cc2c[nH]c3ccccc23)NC(=O)[C@H](CCCNC(=N)N)N(C)C(=O)[C@@H](Cc2ccccc2)NC(=O)[C@H](CCCNC(=N)N)NC(=O)[C@@H](C)NC1=O
[4]
  % max activation: 45%
  cAMP EC50: 1040 nM
[5]
  % max activation: 91%
  cAMP EC50: 128 nM
[6]
  MC4R selectivity vs MC1R: 0.15
  MC4R selectivity vs MC3R: 8.11

## Ac-RC[dA]R[Phe(4-Br)]R[dW]C-NH2 (disulfide 2-8) [CTX-1215]
[1]
  % max activation: 2.1%
  cAMP EC50: 27 nM
[2]
  % max activation: 56%
  cAMP EC50: 592 nM
[3]
  MC4R selectivity vs MC1R: 0.07
  MC4R selectivity vs MC3R: 0.05

## Ac-RC[Aib]R[dF][Cit]WC-NH2 (disulfide 2-8) [CTX-1270]
[4]
  % max activation: 14%
  cAMP EC50: 52 nM
[5]
  % max activation: 98%
  cAMP EC50: 27 nM
[6]
  MC4R selectivity vs MC1R: 2.49
  MC4R selectivity vs MC3R: 1.88

B9: CTX-1278 (peptide)
peptide: Ac-RC[dA]R[d(αMeF)]RWC-NH2
modifications: disulfide 2-8
SMILES: CC(=O)N[C@@H](CCCNC(=N)N)C(=O)N[C@H]1CSSC[C@@H](C(N)=O)NC(=O)[C@H](Cc2c[nH]c3ccccc23)NC(=O)[C@H](CCCNC(=N)N)NC(=O)[C@@](C)(Cc2ccccc2)NC(=O)[C@H](CCCNC(=N)N)NC(=O)[C@@H](C)NC1=O
[4]
  % max activation: 86%
  cAMP EC50: 418 nM
[5]
  % max activation: 105%
  cAMP EC50: 36 nM
[6]
  MC4R selectivity vs MC1R: 1.13
  MC4R selectivity vs MC3R: 12

B10: CTX-1216 (peptide)
peptide: Ac-RC[dA]R[dPhe(4-Br)]R[dW]CKPV-NH2
modifications: disulfide 2-8
SMILES: CC(=O)N[C@@H](CCCNC(=N)N)C(=O)N[C@H]1CSSC[C@@H](C(=O)N[C@@H](CCCCN)C(=O)N2CCC[C@H]2C(=O)N[C@H](C(N)=O)C(C)C)NC(=O)[C@@H](Cc2c[nH]c3ccccc23)NC(=O)[C@H](CCCNC(=N)N)NC(=O)[C@@H](Cc2ccc(Br)cc2)NC(=O)[C@H](CCCNC(=N)N)NC(=O)[C@@H](C)NC1=O
[1]
  % max activation: 11%
  cAMP EC50: 3.5 nM

B11: CTX-1612 (peptide)
peptide: Ac-R[Nle]CR[dPhe(4-Br)]RWC-NH2
modifications: disulfide 3-8
SMILES: CCCC[C@H](NC(=O)[C@H](CCCNC(=N)N)NC(C)=O)C(=O)N[C@H]1CSSC[C@@H](C(N)=O)NC(=O)[C@H](Cc2c[nH]c3ccccc23)NC(=O)[C@H](CCCNC(=N)N)NC(=O)[C@@H](Cc2ccc(Br)cc2)NC(=O)[C@H](CCCNC(=N)N)NC1=O
[1]
  cAMP EC50: 4.5 nM
[2]
  cAMP EC50: 2 nM

## Ac-RCA[Cit][dF]RWC-NH2 (disulfide 2-8) [CTX-1287]
[4]
  % max activation: 43%
  cAMP EC50: 50 nM
[5]
  % max activation: 94%
  cAMP EC50: 0.77 nM
[6]
  MC4R selectivity vs MC1R: 281
  MC4R selectivity vs MC3R: 66

B12: CTX-1234 (peptide)
peptide: Ac-[Nle]CH[dPhe(4-I)]R[dW]C-NH2
modifications: disulfide 2-7
SMILES: CCCC[C@H](NC(C)=O)C(=O)N[C@H]1CSSC[C@@H](C(N)=O)NC(=O)[C@@H](Cc2c[nH]c3ccccc23)NC(=O)[C@H](CCCNC(=N)N)NC(=O)[C@@H](Cc2ccc(I)cc2)NC(=O)[C@H](Cc2c[nH]cn2)NC1=O
[1]
  % max activation: 18%
  cAMP EC50: 3.4 nM

## Ac-RC[dA]R[dPhe(4-Br)]R[dW]C-NH2 (disulfide 2-8) [CTX-1214]
[1]
  % max activation: 15%
  cAMP EC50: 4.1 nM
[2]
  % max activation: 74%
  cAMP EC50: 2.6 nM

B13: CTX-1239 (peptide)
peptide: Ac-RC[dA]R[d(hPhe)]R[dW]C-NH2
modifications: disulfide 2-8
SMILES: CC(=O)N[C@@H](CCCNC(=N)N)C(=O)N[C@H]1CSSC[C@@H](C(N)=O)NC(=O)[C@@H](Cc2c[nH]c3ccccc23)NC(=O)[C@H](CCCNC(=N)N)NC(=O)[C@@H](CCc2ccccc2)NC(=O)[C@H](CCCNC(=N)N)NC(=O)[C@@H](C)NC1=O
[1]
  cAMP EC50: 74 nM
[2]
  cAMP EC50: 249 nM
